The results in this text go back to paper PMC3024946, “Hydroxyproline-containing collagen analogs trigger the release and activation of collagen-sequestered proMMP-2 by competition with prodomain-derived peptide P33-42” (Fibrogenesis & Tissue Repair, 2011).

Common to all, as to parameters: species or system human
The subject of one assay is ActMMP-2. Put plainly: Solid-phase binding of [125I]-actMMP-2 to immobilized collagens/peptides (microwells). Conditions: ActMMP-2, 2 ng/well; coated wells; 4°C, 2 h; residual radioactivity; mean ± SD, at least five experiments in triplicate. How it is done: (§1) Human recombinant proMMPs and in vitro activated MMPs were obtained from Invitek and were labeled with the [^125I]-Bolton-Hunter reagent according to the manufacturer's instructions (PerkinElmer, Rodgau, Germany) before the buffer was exchanged for phosphate-buffered saline (PBS) with 0.05% (vol/vol) Tween 20 by gel filtration as described previously. Specific radioactivity for [^125I]-MMPs was 3-9 × 10^4 cpm/ng. Precipitation with 10% (wt/vol) trichloroacetic acid and 200 μg of BSA recovered 96% to 100% of protein-bound radioactivity. Aliquots of labeled MMPs were frozen and stored at -80°C. […]
(§2) The following collagen analogs and control peptides were synthesized as described previously: (GPO)10, H-Gly-Cys-Hyp-(Gly-Pro-Hyp)10-Gly-Cys-Hyp-Gly-NH2; (GPP)10, H-Gly-Cys-Pro-(Gly-Pro-Pro)10-Gly-Cys-Pro-Gly-NH2; and GAP, H-Gly-Ala-Cys-(Gly-Ala-Pro)5-Gly-Phe-Hyp-Gly-Glu-Arg-(Gly-Ala-Pro)5-NH2. […] Graphs were calculated from the primary data using a custom fitting program written by D.A. Slatter (Department of Biochemistry, University of Cambridge, Cambridge, UK [48]) to model different possible transitions. […]
(§3) ProMMP-2 and proMMP-9 or actMMP-2 and actMMP-9 were bound to nitrocellulose and polystyrene-immobilized native collagens, CI chains, CB peptides or structural analogs. […] Membranes were washed again and air-dried, and bound MMP was monitored by autoradiography. […]

A further assay relates to ActMMP-9. Put plainly: Solid-phase binding of [125I]-actMMP-9 to immobilized collagens/peptides (microwells). Conditions: ActMMP-9, 2 ng/well; coated wells; 4°C, 2 h; residual radioactivity; mean ± SD, at least five experiments in triplicate. On the procedure: as §1, §2, §3
The subject of the next assay is ProMMP-9. Put plainly: Solid-phase binding of [125I]-proMMP-9 to immobilized collagens/peptides (microwells). The settings on record: ProMMP-9, 2 ng/well; coated wells; 4°C, 2 h; residual radioactivity; mean ± SD, at least five experiments in triplicate. On the procedure: as §1, §2, §3
The subject of the next assay is ProMMP-2. Kind of assay: Solid-phase binding of [125I]-proMMP-2 to immobilized collagens/peptides (microwells). The settings on record: ProMMP-2, 2 ng/well; coated wells; 4°C, 2 h; residual radioactivity; mean ± SD, at least five experiments in triplicate. How it is done:
as §1, §2, §3

B1: CIII: native human collagen type III (protein)
chain: QQEAVEGGCSHLGQSYADRDVWKPEPCQICVCDSGSVLCDDIICDDQELDCPNPEIPFGECCAVCPQPPTAPTRPPNGQGPQGPKGDPGPPGIPGRNGDPGIPGQPGSPGSPGPPGICESCPTGPQNYSPQYDSYDVKSGVAVGGLAGYPGPAGPPGPPGPPGTSGHPGSPGSPGYQGPPGEPGQAGPSGPPGPPGAIGPSGPAGKDGESGRPGRPGERGLPGPPGIKGPAGIPGFPGMKGHRGFDGRNGEKGETGAPGLKGENGLPGENGAPGPMGPRGAPGERGRPGLPGAAGARGNDGARGSDGQPGPPGPPGTAGFPGSPGAKGEVGPAGSPGSNGAPGQRGEPGPQGHAGAQGPPGPPGINGSPGGKGEMGPAGIPGAPGLMGARGPPGPAGANGAPGLRGGAGEPGKNGAKGEPGPRGERGEAGIPGVPGAKGEDGKDGSPGEPGANGLPGAAGERGAPGFRGPAGPNGIPGEKGPAGERGAPGPAGPRGAAGEPGRDGVPGGPGMRGMPGSPGGPGSDGKPGPPGSQGESGRPGPPGPSGPRGQPGVMGFPGPKGNDGAPGKNGERGGPGGPGPQGPPGKNGETGPQGPPGPTGPGGDKGDTGPPGPQGLQGLPGTGGPPGENGKPGEPGPKGDAGAPGAPGGKGDAGAPGERGPPGLAGAPGLRGGAGPPGPEGGKGAAGPPGPPGAAGTPGLQGMPGERGGLGSPGPKGDKGEPGGPGADGVPGKDGPRGPTGPIGPPGPAGQPGDKGEGGAPGLPGIAGPRGSPGERGETGPPGPAGFPGAPGQNGEPGGKGERGAPGEKGEGGPPGVAGPPGGSGPAGPPGPQGVKGERGSPGGPGAAGFPGARGLPGPPGSNGNPGPPGPSGSPGKDGPPGPAGNTGAPGSPGVSGPKGDAGQPGEKGSPGAQGPPGAPGPLGIAGITGARGLAGPPGMPGPRGSPGPQGVKGESGKPGANGLSGERGPPGPQGLPGLAGTAGEPGRDGNPGSDGLPGRDGSPGGKGDRGENGSPGAPGAPGHPGPPGPVGPAGKSGDRGESGPAGPAGAPGPAGSRGAPGPQGPRGDKGETGERGAAGIKGHRGFPGNPGAPGSPGPAGQQGAIGSPGPAGPRGPVGPSGPPGKDGTSGHPGPIGPPGPRGNRGERGSEGSPGHPGQPGPPGPPGAPGPCCGGVGAAAIAGIGGEKAGGFAPYYG
Regarding B1, the “Binding of [125I]-MMPs” value in the assay on ActMMP-2 is listed as 14.3 ± 5.8 % of maximum control; in the assay on ActMMP-9, 5.0 ± 0.4 % of maximum control; in the assay on ProMMP-9 it was 45.0 ± 2.0 % of maximum control; in the assay on ProMMP-2 it was 40.0 ± 5.0 % of maximum control.
